# Measured values reported in patent publication US20190071514A1, “ANTI-CD39 ANTIBODIES” (INNATE PHARMA, priority 2016, published 2019).
# Substitutions are numbered along the chain they refer to. Numbers in names are those of the source.
# B1: mAb3 (antibody, human IgG1, V domains shown)
# VH: QVQLVQSGSELKKPGASVKVSCKASGYTFTHYGMNWVRQAPGKGLKWMGWINTYTGEPTYADDFKGRFVFSLDTSVSTAYLQISSLKAEDTAVYYCARRRYEGNYVFYYFDYWGQGTTVTVSS
# VL: DIQMTQSPSSLSASVGDRVTITCRASENIYSYFSWYQQKPGKAPKLLIYTAKTLAEGVPSRFSGSGSGTDFTLTISSLQPEDFATYYCQHHYVTPYTFGGGTKVEIK
# notes: Produced as Fc silent recombinant human IgG1 with heavy chain N297Q (Kabat EU numbering) and huCk constant domain; also called anti-CD39 antibody mAb3
# B2: mAb4 (antibody, human IgG1, V domains shown)
# VH: B1 VH with V2I, T74A
# VL: B1 VL
# notes: Produced as Fc silent recombinant human IgG1 with heavy chain N297Q (Kabat EU numbering) and huCk constant domain; also called anti-CD39 antibody mAb4
# B3: mAb5 (antibody, human IgG1, V domains shown)
# VH: B1 VH with K43Q
# VL: B1 VL with I48V
# notes: Produced as Fc silent recombinant human IgG1 with heavy chain N297Q (Kabat EU numbering) and huCk constant domain; also called anti-CD39 antibody mAb5
# B4: mAb1 (antibody, human IgG1, V domains shown)
# VH: B1 VH with K43Q, K46E
# VL: B1 VL
# notes: Produced as Fc silent recombinant human IgG1 with heavy chain N297Q (Kabat EU numbering) and huCk constant domain; also called anti-CD39 antibody mAb1
# B5: mAb2 (antibody, human IgG1, V domains shown)
# VH: B1 VH with K43Q
# VL: B1 VL
# notes: Produced as Fc silent recombinant human IgG1 with heavy chain N297Q (Kabat EU numbering) and huCk constant domain; also called anti-CD39 antibody mAb2
# B6: mAb6 (antibody, human IgG1, V domains shown)
# VH: B1 VH
# VL: B1 VL with I48V
# notes: Produced as Fc silent recombinant human IgG1 with heavy chain N297Q (Kabat EU numbering) and huCk constant domain; also called anti-CD39 antibody mAb6
# B7: mAb7 (antibody, human IgG1, V domains shown)
# VH: B1 VH with V2I, T74A
# VL: B1 VL with I48V
# notes: Produced as Fc silent recombinant human IgG1 with heavy chain N297Q (Kabat EU numbering) and huCk constant domain; also called anti-CD39 antibody mAb7
# Experiments:
# [1] = molecular target: T1, human CD39 endogenously expressed on Ramos human lymphoma cells (human, UniProt P49961 1-510); test: cell-based or functional assay
# T1 sequence: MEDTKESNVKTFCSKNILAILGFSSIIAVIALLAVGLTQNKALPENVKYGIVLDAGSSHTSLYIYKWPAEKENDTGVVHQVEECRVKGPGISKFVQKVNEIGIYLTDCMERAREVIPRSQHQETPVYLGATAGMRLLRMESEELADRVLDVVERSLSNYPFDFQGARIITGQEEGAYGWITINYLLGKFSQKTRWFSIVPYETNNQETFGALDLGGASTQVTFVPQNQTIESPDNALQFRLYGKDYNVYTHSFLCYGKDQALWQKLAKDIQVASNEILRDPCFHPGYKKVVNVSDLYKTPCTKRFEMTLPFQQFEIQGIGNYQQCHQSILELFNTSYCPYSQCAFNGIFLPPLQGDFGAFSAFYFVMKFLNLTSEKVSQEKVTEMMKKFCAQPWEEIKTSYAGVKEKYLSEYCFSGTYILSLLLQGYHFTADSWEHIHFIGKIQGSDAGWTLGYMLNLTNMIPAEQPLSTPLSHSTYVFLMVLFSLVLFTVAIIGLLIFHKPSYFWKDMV
# Human CD39-L2 = molecular target: T2, Human CD39-L2 (human, UniProt O75354 61-484, limits assumed); test: ELISA, recombinant isoform coated, dose range of antibody
# T2 construct: Recombinant protein coated on ELISA plates; also called NTPDase6; ENTPD6
# T2 sequence: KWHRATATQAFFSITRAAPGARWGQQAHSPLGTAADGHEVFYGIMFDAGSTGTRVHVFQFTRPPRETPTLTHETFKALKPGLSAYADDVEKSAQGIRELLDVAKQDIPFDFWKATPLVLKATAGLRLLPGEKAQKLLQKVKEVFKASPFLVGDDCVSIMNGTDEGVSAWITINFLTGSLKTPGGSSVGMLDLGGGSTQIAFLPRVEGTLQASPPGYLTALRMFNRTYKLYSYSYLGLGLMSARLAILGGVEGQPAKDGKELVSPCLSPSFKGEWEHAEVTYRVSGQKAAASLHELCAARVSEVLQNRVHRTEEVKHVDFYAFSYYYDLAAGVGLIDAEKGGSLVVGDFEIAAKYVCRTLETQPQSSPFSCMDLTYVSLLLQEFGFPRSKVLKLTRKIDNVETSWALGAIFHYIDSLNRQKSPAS
# Protocol: (§1) Antibodies were tested for binding to recombinant human CD39 isoforms (Rec-huCD39 isoforms). The CD39 isoforms having amino acid sequences shown in the table below were coated in 96-well plate in PBS 1× at 500 ng/ml or 1 μg/ml at 4° C. overnight. Wells were washed in TBS Tween 20, and further saturated 2H at RT in TBS Blocking buffer (Thermo Fisher Scientific Inc.). Dose range concentration of primary antibody was incubated in TBS blocking buffer for 2 h at RT. Wells were washed in TBS Tween 20. […] Optical density was measured on Enspire at OD=450.
# Human CD39-L3 = molecular target: T3, Human CD39-L3 (human, UniProt O75355 44-485, limits assumed); test: as above
# T3 construct: Recombinant protein coated on ELISA plates; also called NTPDase3; ENTPD3
# T3 sequence: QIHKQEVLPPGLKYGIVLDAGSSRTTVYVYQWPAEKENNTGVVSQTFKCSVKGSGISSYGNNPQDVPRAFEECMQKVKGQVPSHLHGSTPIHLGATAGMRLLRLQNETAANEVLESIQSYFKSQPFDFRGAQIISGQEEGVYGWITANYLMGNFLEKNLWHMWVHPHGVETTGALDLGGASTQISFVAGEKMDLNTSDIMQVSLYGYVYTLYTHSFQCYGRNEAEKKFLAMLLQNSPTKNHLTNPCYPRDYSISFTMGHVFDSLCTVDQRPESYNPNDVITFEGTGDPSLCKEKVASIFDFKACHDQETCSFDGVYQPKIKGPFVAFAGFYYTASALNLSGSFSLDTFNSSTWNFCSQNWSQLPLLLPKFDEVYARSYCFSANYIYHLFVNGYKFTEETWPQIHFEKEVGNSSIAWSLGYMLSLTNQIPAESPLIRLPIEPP
# Protocol: as §1
# Human CD39-L4 = molecular target: T4, Human CD39-L4 (human, UniProt O75356 25-428); test: as above
# T4 construct: Recombinant protein coated on ELISA plates; also called NTPDase5; ENTPD5
# T4 sequence: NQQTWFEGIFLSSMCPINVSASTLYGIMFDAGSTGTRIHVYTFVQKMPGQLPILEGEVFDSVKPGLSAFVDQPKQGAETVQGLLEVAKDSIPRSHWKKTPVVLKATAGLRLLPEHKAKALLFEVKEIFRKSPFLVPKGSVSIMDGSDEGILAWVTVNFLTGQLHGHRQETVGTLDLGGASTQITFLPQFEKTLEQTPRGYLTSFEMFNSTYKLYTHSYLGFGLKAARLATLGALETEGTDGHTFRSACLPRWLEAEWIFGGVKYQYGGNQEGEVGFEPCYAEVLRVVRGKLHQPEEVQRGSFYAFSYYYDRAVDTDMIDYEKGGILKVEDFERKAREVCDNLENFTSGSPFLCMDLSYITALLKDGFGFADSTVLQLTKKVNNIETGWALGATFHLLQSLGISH
# Protocol: as §1
Binder,"inhibition of CD39 enzymatic activity (AMP generated by Ramos cells, Maldi TOF) [1]",binding result (Human CD39-L2),binding result (Human CD39-L3),binding result (Human CD39-L4)
B1,≥ 90%,no binding,no binding,no binding
B2,≥ 90%,no binding,no binding,no binding
B3,≥ 90%,no binding,no binding,no binding
B4,≥ 90%,no binding,no binding,no binding
B5,≥ 90%,no binding,no binding,no binding
B6,≥ 90%,no binding,no binding,no binding
B7,≥ 90%,no binding,no binding,no binding
